± gives the standard deviation.
Experiment: protein stability index of a GFP-peptide fusion (GPS, HEK-293T) (PSI 1-6); higher = more stable
[1] = treatment: DMSO, c terminus: a fixed tail appended
[2] = treatment: MLN4924 1 uM, 8 h, c terminus: a fixed tail appended
[3] = treatment: DMSO, c terminus: native
[4] = treatment: MLN4924 1 uM, 8 h, c terminus: native
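Also: 24-mer peptide tiles fused after GFP, lentivirally expressed, FACS-sorted into six equal bins by GFP/DsRed ratio, decoded by Illumina sequencing, PSI is the read-weighted mean bin number.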

Row | Sequence | protein stability index [1] | protein stability index [2] | protein stability index [3] | protein stability index [4]
1 | PKRMPSGRGGRDRFTAESYTVLGD [FSD1] | 4.11 ± 0.33 | 4.3 ± 0.22 | – | –
2 | PGDPSKDRAAKRLSLESEGAGEGA [TPPP] | 5.47 ± 0.22 | 5.33 ± 0.38 | – | –
3 | APHSTFFDPIVLLPCDLPKVVSRA [LPCAT4] | 2.67 ± 0.31 | 2.72 ± 0.15 | – | –
4 | LDDGEIDEIRWKYHSDTTPKIIES [IQUB] | 4.25 ± 0.23 | 3.98 ± 0.24 | – | –
5 | NFQQPGFTSGTGHFTAMVWKNTKK [GLIPR2] | 3.74 ± 0.32 | 3.95 ± 0.067 | – | –
6 | AESRELPVRCAGDWLPRGLGWGGR [ALG2] | 2.53 ± 0.053 | 2.54 ± 0.29 | – | –
7 | VPEKRDSGMTEVERTYSANCSDFL [SPATS1] | 4.7 ± 0.17 | 4.89 ± 0.14 | – | –
8 | DPSVRLKIASLLGLLSKTAGFSPD [INTS4] | 2.57 ± 0.46 | 2.38 ± 0.26 | – | –
9 | QVVGQVNVEMDATPGIDLTRVLAE [KRT13] | 4.07 ± 0.32 | 4.15 ± 0.2 | – | –
10 | GMRRKSLLTRKVICKSDAPTGDVL [GOLPH3] | 3.51 ± 0.18 | 3.53 ± 0.52 | – | –
11 | NLFEGMIWFIVPISCVICNDIMAY [CDS2] | 3.44 ± 0.44 | 3.26 ± 0.74 | – | –
12 | RSVRRERLKEMKLLRDQFVKALED [FAM9B] | 3.22 ± 0.27 | 3.05 ± 0.57 | – | –
13 | MQKEDNQVDVRFFGHHHQRAWIPS [ZMYND11] | 3.05 ± 0.12 | 3.18 ± 0.32 | – | –
14 | EGKMYTARKGKGAFCNGQKLQVSQ [IMPA1] | 3.52 ± 0.33 | 3.93 ± 0.32 | – | –
15 | RKHALERFEQEAVAVDSNLRVREL [CCDC89] | 4.21 ± 0.12 | 4.47 ± 0.21 | – | –
16 | RRLKTTRLKEYTIKSHSSLPPNNS [DAPK3] | 3.44 ± 0.3 | 3.61 ± 0.28 | – | –
17 | AQEVSPCGPPSLGAVLALVAIFIM [MFSD9] | 2 ± 0.15 | 1.93 ± 0.39 | – | –
18 | QLDMFYRNWALKESFIKAIGVGLG [AASDHPPT] | 2.78 ± 0.1 | 2.92 ± 0.58 | – | –
19 | TPRGPDPALLEATGGAAGAGGAGR [KCTD13] | 5.13 ± 0.23 | 5.18 ± 0.21 | – | –
20 | IFSGAASLGYGTNVAATGISQYED [APBB1IP] | 3.83 ± 0.24 | 3.67 ± 0.16 | – | –
21 | RPPGHHAQHSLMDGYCMFNHVAVA [HDAC6] | 2.4 ± 0.43 | 2.27 ± 0.23 | – | –
22 | RAGHHPNQYATCRLCGRQVSRGPG [ZBED2] | 2.35 ± 0.38 | 2.67 ± 0.59 | – | –
23 | ALASISHVAHVTITTKTADGKCAY [MLH1] | – | 2.63 ± 0.3 | – | –

Row | Sequence | protein stability index [1] | protein stability index [2] | protein stability index [3] | protein stability index [4]
24 | NAREESLVEELSPASEKKPVPPSE [BCL2L13] | 5.33 ± 0.27 | 5.47 ± 0.14 | – | –
25 | YCDLPQLFQLSCSSTQLNELLLFA [OR3A1] | 2.61 ± 0.36 | 2.64 ± 0.57 | – | –
26 | GSAYLFVESSLDKVVLSDAYAHPQ [TRADD] | 2.22 ± 0.35 | 2.37 ± 0.54 | – | –
27 | LEQCSASIEVGGSVNFDGETIEGA [FEM1C] | 5.4 ± 0.3 | 5.14 ± 0.57 | – | –
28 | ESASSQSGCLRISIQKLSNESRYM [NECAB1] | 2.76 ± 0.2 | 2.78 ± 0.31 | – | –
29 | ANVTLSLDTVEEVLSVSKILHIPQ [KLHL14] | 2.31 ± 0.43 | 2.21 ± 0.38 | – | –
30 | EGKNMSFVNDLTVTQDGRKIYFTD [APMAP] | 3.98 ± 0.38 | 3.91 ± 0.58 | – | –
31 | DDLRINLWHLAITDRSFNIVDIKP [PPP2R2C] | 2.19 ± 0.2 | 2.17 ± 0.19 | – | –
32 | NFGFDLLVTYTNRYIIFKRNTLNQ [GMCL1] | 2.1 ± 0.15 | 2.47 ± 0.56 | – | –
33 | PLHLSALRDDVLCARMLYNYGADT [ASB7] | 2.27 ± 0.15 | 2.48 ± 0.38 | – | –
34 | DTRLRYSFFVPRPTPSTPRPTPQD [ADAMTS4] | 3.64 ± 0.15 | 3.74 ± 0.089 | – | –
35 | QHGLVLRDLKLCRFVFADRERKKL [TRIB3] | 2.38 ± 0.12 | 2.55 ± 0.18 | – | –
36 | LANPVLESTPVGTVVGLFNVRDRD [PCDHGC5] | 4.08 ± 0.35 | 4.06 ± 0.34 | – | –
37 | LTTKDYMEMYNVIMTVKEDQFSAL [SLC6A17] | 2.37 ± 0.39 | 2.38 ± 0.29 | – | –
38 | SLKDQERVAEVSRVRVELQEQNGR [LRRC45] | 5.17 ± 0.45 | 4.91 ± 0.26 | – | –
39 | QVLLKGMTSISLPSVMDPGAFETV [ZBTB22] | 2.61 ± 0.36 | 2.84 ± 0.37 | – | –
40 | LDWISYQVEKNKYDASAIDFSRCD [ELF3] | 2.93 ± 0.23 | 3.01 ± 0.1 | – | –
41 | IEDLEVTCTWKLPTLAKFSPYLGQ [PRAME] | 2.62 ± 0.32 | 2 ± 0.58 | – | –
42 | EMHTALMEACMDGHVEVARLLLDS [ANKRD17] | 2.38 ± 0.22 | 2.55 ± 0.28 | – | –
43 | RAISTSVCVRAHESVVKSEDFSLP [COX4I1] | 3.9 ± 0.17 | 3.79 ± 0.34 | – | –
44 | ADWTQGLPWRFEELLTCSHWPSFF [TEX19] | 2.54 ± 0.67 | 2.6 ± 0.58 | – | –
45 | VINPMLNPIIYSFRNPDVQSAIWR [OR3A1] | 2.06 ± 0.51 | 2.24 ± 0.19 | – | –
46 | SRAGGPTTPLSPTRLSRLQEKEEL [LMNB1] | 5.15 ± 0.37 | 5.36 ± 0.15 | – | –

Row | Sequence | protein stability index [1] | protein stability index [2] | protein stability index [3] | protein stability index [4]
47 | SRAPCKVQGLEGIKMAMVACGDAF [NEK8] | 2.27 ± 0.38 | 2.25 ± 0.27 | – | –
48 | EGYCQAQAPIAAVLLMHMPAEQAF [TBC1D10A] | 2.33 ± 0.49 | 2.03 ± 0.27 | – | –
49 | LYSLAPTMGAVVLSSTLLSFSTAI [MFSD9] | 3.19 ± 0.47 | 2.96 ± 0.42 | – | –
50 | SAVEKEPARAPPEPPHNLFCAPGS [SERTAD3] | 4.95 ± 0.24 | 4.98 ± 0.078 | – | –
51 | KALEDFEDLCDRVFSDEDSELDN [FAM9B] | – | – | 4.98 ± 0.16 | 5.17 ± 0.3
52 | TNEKMLKAVFGKHGPISEVLLIKD [RBMY1A1] | 2.82 ± 0.24 | 2.96 ± 0.15 | – | –
53 | VVRGGEVVHRSDEQQHYFNTPFQL [PPTC7] | 3.26 ± 0.47 | 3.43 ± 0.24 | – | –
54 | LLEQAGSLKGSLSVEEQLSLISGC [CRYL1] | 2.98 ± 0.32 | 3.2 ± 0.39 | – | –
55 | GVDWEHIRERPAAIPIEIKSIDDT [STK38L] | 4.68 ± 0.25 | 4.99 ± 0.27 | – | –
56 | LMFFIMAAMLSMVKYNSCADRPFS [POMT2] | 3.19 ± 0.7 | 3.06 ± 0.32 | – | –
57 | AEEFEQPTLSCEKYLTYDQLRKQK [ELOA2] | 4.71 ± 0.31 | 4.9 ± 0.11 | – | –
58 | QGSAVTLKTSKMALSPSATAKRIN [CDC14A] | 4.22 ± 0.25 | 4.44 ± 0.18 | – | –
59 | PDTGDNARLTYSIVGNQVQGAPAS [PCDHGC5] | 4.42 ± 0.37 | 4.52 ± 0.52 | – | –
60 | NLVSVGYQAGKPDALTKLEQGEPL [ZNF649] | 4.39 ± 0.27 | 4.17 ± 0.4 | – | –
61 | MERLRELQRASILDMRRDHEEQLQ [FBF1] | 4.28 ± 0.28 | 4.42 ± 0.29 | – | –
62 | DSLKFAVLMWLLTYVGALFNGLTL [RTN1] | 3.69 ± 1.4 | 3.378 ± 0.013 | – | –
63 | ESGLRSLRLFQKLEENGDLYLAV [WDR41] | – | – | 2.08 ± 0.2 | 2.16 ± 0.36
64 | GRSSLTACSLPLCACLLGQKMLRH [PXN] | 2.32 ± 0.28 | 2.19 ± 0.16 | – | –
65 | ERFIQYLASRNTLFNLSNFLDKSG [SNAP91] | 2.4 ± 0.26 | 2.53 ± 0.61 | – | –
66 | EAGGRFVAFSGEGQSLRKKGRKP [UFD1] | – | – | 2.75 ± 0.78 | 3.29 ± 0.79
67 | LLELAGEVTDTGDPIVRPLWWIAP [MYORG] | 2.46 ± 0.21 | 2.43 ± 0.24 | – | –
68 | QAQPGEATSGPPGIQPGQEPPVTM [PALM] | 5.6 ± 0.19 | 5.33 ± 0.24 | – | –
69 | GHNFCRGCVSRCWEVQVSPTCPVC [TRIM35] | 3.86 ± 0.22 | 3.83 ± 0.38 | – | –

Row | Sequence | protein stability index [1] | protein stability index [2] | protein stability index [3] | protein stability index [4]
70 | QSETQGLEGAQAPLAVEEDASSST [MAGEA10] | 5.64 ± 0.26 | 5.52 ± 0.33 | – | –
71 | QYNRPISDFLTLHSIIISLVEAGA [FEM1B] | 2.34 ± 0.53 | 2.36 ± 0.34 | – | –
72 | KCKAEHDQLLLNYAKKESDLNGAQ [LMNB1] | 4.03 ± 0.38 | 4.01 ± 0.32 | – | –
73 | SWEVVRNPLIASSFSLVKLVLRRQ [C22orf31] | 2.52 ± 0.53 | 2.21 ± 0.28 | – | –
74 | EEEKKKMEESKAKFENLCKLMKEI [HSP90AB1] | 4.43 ± 0.36 | 4.58 ± 0.49 | – | –
75 | PVTCCDVSSNNRLVVTGSGEHASV [TLE6] | 4.19 ± 0.22 | 4.37 ± 0.16 | – | –
76 | QQAVEQIAKAEETHSSLSQELQAR [CCDC89] | 5.2 ± 0.25 | 5.23 ± 0.28 | – | –
77 | FSKQIVLRGKSIKRAPGEETEKEE [NEUROD6] | 4.94 ± 0.28 | 5.1 ± 0.34 | – | –
78 | HTETGEEVLRMCVAVKKKLQLYFW [VPS39] | 2.8 ± 0.85 | 2.82 ± 0.33 | – | –
79 | HNYKEMRQLMKVVNEMCPNITRIY [CPXM2] | 2.11 ± 0.37 | 2.17 ± 0.31 | – | –
80 | RLVVQRCSGQKWMIRNWIKHARH [GALNT9] | – | – | 3.21 ± 0.92 | 2.69 ± 0.65
81 | LTVAKCWDPSPRGCFTLPRSEPIR [DVL3] | 2.43 ± 0.37 | 2.62 ± 0.23 | – | –
82 | GSAPFLFLSLACARGSIVATYIFI [SPNS1] | 3.15 ± 0.53 | 2.9 ± 0.46 | – | –
83 | VCEEQKCEEEVFPLAMNYLDRFLS [CCND1] | 3.59 ± 0.079 | 3.8 ± 0.18 | – | –
84 | GKAAQAGVAVGDWVLSIDGENAGS [PDLIM7] | 3.97 ± 0.24 | 4.2 ± 0.42 | – | –
85 | DREVAIYSKESIIFGASSVDFSLS [GNB5] | 2.98 ± 0.17 | 3.2 ± 0.27 | – | –
86 | RRLQEVLGVQTGGPGGRRAGEPGH [DYRK1B] | 4.12 ± 0.3 | 4.18 ± 0.26 | – | –
87 | ASTPAQTAAGGQGGPGGPGSDKQQ [NR2F2] | 5.58 ± 0.26 | 5.59 ± 0.3 | – | –
88 | PVLGRRAVGGRLRLVPGGQRPADV [HAGHL] | 3.64 ± 0.17 | 3.88 ± 0.36 | – | –
89 | ELEQQIWKERDEYITKVSEEVTRL [TRIM15] | 3.94 ± 0.21 | 3.95 ± 0.27 | – | –

From the supplement of paper PMC10567573
